According to article PMC3814363, “Tracking in atomic detail the functional specializations in viral RecA helicases that occur during evolution” (Nucleic Acids Research, 2013):

How the values were obtained:
[1] = target: ɸ8 P4 (full-length packaging NTPase P4 of bacteriophage ɸ8) (bacteriophage ɸ8); test: crystal structure; ɸ8 P4 crystals grown at 24°C; 100 mM sodium acetate pH 4.6, […] ammonium sulphate, DTT; protein 3 mg/ml; apo form; hexamer
ɸ12 P4 = target: T1, ɸ12 P4 (Pseudomonas phage phi12, UniProt Q94M05); test: X-ray crystal structure, […] Å; format: binding; conditions: 5 mM UTP, pH 4.8; nucleotide site; competitive with ATP, not hydrolysed
T1 construct: gene 4; plasmid pPG27 (template for mutants), E. coli BL21(DE3) or B834(DE3); hexamer

[2] = target: ɸ8 P4Δ281 (C-terminally truncated ɸ8 P4, missing residues 281–321) (bacteriophage ɸ8); test: crystal structure; ɸ8 P4Δ281 crystals from 5 mg/ml protein; 100 mM Tris pH 8.0, 18% PEG 1000; hexamer
[3] = target: ɸ13 P4 (full-length packaging NTPase P4 of bacteriophage ɸ13) (bacteriophage ɸ13); test: crystal structure; ɸ13 P4 crystals grown at 20°C from 12 mg/ml protein; 100 mM Tris–HCl pH 7.0, 900 mM trisodium citrate, 200 mM NaCl; apo form; hexamer
[4] = target: the molecule itself; test: crystal structure; ɸ6 P4Δ310 crystals grown at 24°C from 3.5 mg/ml protein in 20 mM HEPES pH 8.0, 5 mM MgCl2, 2 mM CaCl2, 5 mM ADP, 100 mM NaCl; reservoir 6% PEG 4000, 90 mM sodium acetate pH 4.5; ADP bound; hexamer
[5] = target: the molecule itself; test: not stated; quaternary structure of purified ɸ12 P4 mutants as listed in Table 1; method not given
[6] = target: the molecule itself; test: crystal structure; wild-type ɸ12 P4 crystals; 10% PEG 1500, 100 mM sodium acetate pH 4.8, 5 mM UTP; hexamer

ɸ8 P4 (full-length packaging NTPase P4 of bacteriophage ɸ8) (enzyme)
stoichiometry N [1]: 6

O=c1ccn([C@@H]2O[C@H](COP(=O)(O)OP(=O)(O)OP(=O)(O)O)[C@@H](O)[C@H]2O)c(=O)[nH]1 [UTP]
X-ray crystal structure, 1.9 Å (ɸ12 P4): pyrimidine triphosphates can bind the hexamer without being hydrolysed

ɸ8 P4Δ281 (C-terminally truncated ɸ8 P4, missing residues 281–321) (domain or fragment)
stoichiometry N [2]: 6

ɸ13 P4 (full-length packaging NTPase P4 of bacteriophage ɸ13) (enzyme)
stoichiometry N [3]: 6

B1: ɸ6 P4Δ310 (C-terminally truncated packaging NTPase P4 of bacteriophage ɸ6, missing residues 310–331) (domain or fragment, UniProt P11125 1-309, looked up)
chain: MPIVVTQAHIDRVGIAADLLDASPVSLQVLGRPTAINTVVIKTYIAAVMELASKQGGSLAGVDIRPSVLLKDTAIFTKPKAKSADVESDVDVLDTGIYSVPGLARKPVTHRWPSEGIYSGVTALMGATGSGKSITLNEKLRPDVLIRWGEVAEAYDELDTAVHISTLDEMLIVCIGLGALGFNVAVDSVRPLLFRLKGAASAGGIVAVFYSLLTDISNLFTQYDCSVVMVVNPMVDAEKIEYVFGQVMASTVGAILCADGNVSRTMFRTNKGRIFNGAAPLAADTHMPSMDRPTSMKALDHTSIASVAP
notes: packaging NTPase P4 of bacteriophage ɸ6, C-terminally truncated, missing residues 310–331; expressed from plasmid pJTJ7.3/7; Crystallised with ADP, Mg2+ and Ca2+; source: E. coli BL21(DE3) or B834(DE3), purified (Heparin, Q-sepharose, Superdex 200)
stoichiometry N [4]: 6

B2: ɸ12 P4 Y288A (enzyme, bacteriophage ɸ12)
chain: MIHLYDAKSFAKLRAAQYAAFHTDAPGSWFDHTSGVLESVEDGTPVLAIGVESGDAIVFDKNAQRIVAYKEKSVKAEDGSVSVVQVENGFMKQGHRGWLVDLTGELVGCSPVVAEFGGHRYASGMVIVTGKGNSGKTPLVHALGEALGGKDKYATVRFGEPLSGYNTDFNVFVDDIARAMLQHRVIVIDSLKNVIGAAGGNTTSGGISRGAFDLLSDIGAMAASRGCVVIASLNPTSNDDKIVELVKEASRSNSTSLVISTDVDGEWQVLTRTGEGLQRLTHTLQTSAGEHSVLTIHTSKQSGGKQASGKAIQTVIKNDELESVLRRLTSN
notes: packaging NTPase P4 of bacteriophage ɸ12 (gene 4) with Y288A; made from plasmid pPG27, plasmid pDK29; also called ɸ12 Y288A; source: E. coli BL21(DE3) or B834(DE3), purified (Heparin, Q-sepharose, Superdex 200)
stoichiometry N [5]: 6

B3: ɸ12 P4 ΔTTS202-204 (enzyme, bacteriophage ɸ12)
chain: MIHLYDAKSFAKLRAAQYAAFHTDAPGSWFDHTSGVLESVEDGTPVLAIGVESGDAIVFDKNAQRIVAYKEKSVKAEDGSVSVVQVENGFMKQGHRGWLVDLTGELVGCSPVVAEFGGHRYASGMVIVTGKGNSGKTPLVHALGEALGGKDKYATVRFGEPLSGYNTDFNVFVDDIARAMLQHRVIVIDSLKNVIGAAGGNGGISRGAFDLLSDIGAMAASRGCVVIASLNPTSNDDKIVELVKEASRSNSTSLVISTDVDGEWQVLTRTGEGLQRLTHTLQTSYGEHSVLTIHTSKQSGGKQASGKAIQTVIKNDELESVLRRLTSN
notes: packaging NTPase P4 of bacteriophage ɸ12 (gene 4) with the L1 loop central residues T202-T203-S204 deleted; made from plasmid pPG27, plasmid pDK249; also called ɸ12 ΔTTS202-204; source: E. coli BL21(DE3) or B834(DE3), purified (Heparin, Q-sepharose, Superdex 200)
stoichiometry N [5]: 6

B4: ɸ12 P4 TTS202-204LKK (enzyme, bacteriophage ɸ12)
chain: MIHLYDAKSFAKLRAAQYAAFHTDAPGSWFDHTSGVLESVEDGTPVLAIGVESGDAIVFDKNAQRIVAYKEKSVKAEDGSVSVVQVENGFMKQGHRGWLVDLTGELVGCSPVVAEFGGHRYASGMVIVTGKGNSGKTPLVHALGEALGGKDKYATVRFGEPLSGYNTDFNVFVDDIARAMLQHRVIVIDSLKNVIGAAGGNLKKGGISRGAFDLLSDIGAMAASRGCVVIASLNPTSNDDKIVELVKEASRSNSTSLVISTDVDGEWQVLTRTGEGLQRLTHTLQTSYGEHSVLTIHTSKQSGGKQASGKAIQTVIKNDELESVLRRLTSN
notes: packaging NTPase P4 of bacteriophage ɸ12 (gene 4) with LKK instead of TTS (residues 202–204); cloned in the pT7-7 vector at NdeI-EcoRI sites; also called ɸ12 TTS202-204LKK; source: E. coli BL21(DE3) or B834(DE3), purified (Heparin, Q-sepharose, Superdex 200)
stoichiometry N [5]: 6

B5: wild-type ɸ12 P4 (packaging NTPase P4 of bacteriophage ɸ12) (enzyme)
chain: MIHLYDAKSFAKLRAAQYAAFHTDAPGSWFDHTSGVLESVEDGTPVLAIGVESGDAIVFDKNAQRIVAYKEKSVKAEDGSVSVVQVENGFMKQGHRGWLVDLTGELVGCSPVVAEFGGHRYASGMVIVTGKGNSGKTPLVHALGEALGGKDKYATVRFGEPLSGYNTDFNVFVDDIARAMLQHRVIVIDSLKNVIGAAGGNTTSGGISRGAFDLLSDIGAMAASRGCVVIASLNPTSNDDKIVELVKEASRSNSTSLVISTDVDGEWQVLTRTGEGLQRLTHTLQTSYGEHSVLTIHTSKQSGGKQASGKAIQTVIKNDELESVLRRLTSN
notes: packaging NTPase P4 of bacteriophage ɸ12 (gene 4), wild type; plasmid pPG27; Crystallised here with 5 mM UTP; also called P4 ɸ12; source: E. coli BL21(DE3) or B834(DE3), purified (Heparin, Q-sepharose, Superdex 200)
stoichiometry N [6]: 6

B6: ɸ12 P4-S292A (enzyme)
chain: MIHLYDAKSFAKLRAAQYAAFHTDAPGSWFDHTSGVLESVEDGTPVLAIGVESGDAIVFDKNAQRIVAYKEKSVKAEDGSVSVVQVENGFMKQGHRGWLVDLTGELVGCSPVVAEFGGHRYASGMVIVTGKGNSGKTPLVHALGEALGGKDKYATVRFGEPLSGYNTDFNVFVDDIARAMLQHRVIVIDSLKNVIGAAGGNTTSGGISRGAFDLLSDIGAMAASRGCVVIASLNPTSNDDKIVELVKEASRSNSTSLVISTDVDGEWQVLTRTGEGLQRLTHTLQTSYGEHAVLTIHTSKQSGGKQASGKAIQTVIKNDELESVLRRLTSN
notes: packaging NTPase P4 of bacteriophage ɸ12 (gene 4) with S292A; made from plasmid pPG27, plasmid pDK31; Crystallised with 5 mM AMPcPP; also called ɸ12 S292A; S292A mutant; source: E. coli BL21(DE3) or B834(DE3), purified (Heparin, Q-sepharose, Superdex 200)
stoichiometry N [5]: 6

B7: ɸ12 P4-Q278A (enzyme)
chain: MIHLYDAKSFAKLRAAQYAAFHTDAPGSWFDHTSGVLESVEDGTPVLAIGVESGDAIVFDKNAQRIVAYKEKSVKAEDGSVSVVQVENGFMKQGHRGWLVDLTGELVGCSPVVAEFGGHRYASGMVIVTGKGNSGKTPLVHALGEALGGKDKYATVRFGEPLSGYNTDFNVFVDDIARAMLQHRVIVIDSLKNVIGAAGGNTTSGGISRGAFDLLSDIGAMAASRGCVVIASLNPTSNDDKIVELVKEASRSNSTSLVISTDVDGEWQVLTRTGEGLARLTHTLQTSYGEHSVLTIHTSKQSGGKQASGKAIQTVIKNDELESVLRRLTSN
notes: packaging NTPase P4 of bacteriophage ɸ12 (gene 4) with Q278A; made from plasmid pPG27, plasmid pDK30; Crystallised with 5 mM AMPcPP; also called ɸ12 Q278A; Q278A mutant; source: E. coli BL21(DE3) or B834(DE3), purified (Heparin, Q-sepharose, Superdex 200)
stoichiometry N [5]: 6
